These results are taken from a protein production outcome set (Wang et al. 2014).

The data set in a line: label from the status in PepcDB records.
Regarding “METKTVAITMGDPAGIGPEIIVKALSEDGLNGAPLVVIGCLATLKRLQAKGITPNVELRAIERVAEARFAPGIIHVIDEPLAQPEALEAGKVQAQAGDLAYRCVKRATELALRGDVQAIATAPLNKEALHLAGHNYPGHTELLATLTHSRDYAMVLYTDKLKVIHVSTHIALRKFLDTLSTARVETVIGIADTFLKRVGYVKPRIAVAGVNPHAGENGLFGDEETRILTPAITDARAKGMDVYGPCPPDTVFLQAYEGQYDMVVAMYHDQGHIPLKLLGFYDGVNITAGLPFIRTSADHGTAFDIAWTGKAKSESMAVSIKLAMQLA”, the protein production result is reported as “not failed”.
As for “METLNDIKKILINVGLYQGFDLTDPKVSEEVNHETANMKWIKDYTSDGNWDNEFKEDLKNFLDYMEVCQLALNDKNFKIASNSLFMAMIYAGNLSLIFDSIKTDISTLLSAEYKKNSFSWPSLDE”, the entry is “not failed”; as for “METLRVSSKSRPNSVAGAIAALLRTKGEVEVQAIGPQAVNQAVKAIAIARGYIAPDNLDLVVKPAFVKLELENEERTALKFSIKAHPLET”, “not failed”.
With “METQKTQAENPPKPATSSCRKKTKDDANFLEDVKDHIDDFINASMDDHKNCFNKTIKKMFGLSKAVADKQQSEAKGGVESYLPLQTTVSD” the entry was “failed”; with “METSMRYTSNSKSMKIHAKEKVPVNSKTHLQLHGELDTGTGAPSYFCAMIRHFFPEASTGLGVGLHYDKRQKLRCLVRGKKEFPVRADKRVTFNIKGRCDIDQDLNQKNPKGAAEFAWNIMDFKEDQDVRIKVGYEMFDKVPYMQIRENNWTLNANMKGKWNLRYDL”, “failed”.
In the case of “MEVFLMIRRKKTTIFAEAQESSTVLELKRIVQGILKRPPEEQLLFKDDQLLDESKTLRDCGFTSQIAKAQDPATVALVFREDASEGVQIHPYSTPLLPSVMKTGTDSLSDEIKSGLDSLSDEIKSGLDSVWCIKPEAAAGMEVFLMIRRKKTTIFAEAQESSTVLELKRIVQGFLKKPPKDQLLFKDNQLLEERKTLRDCGITGRIAKPEDPAILTLEFREDAFQLLHASPFSCPLIGGVLKNGLDFKRD”, the protein production entry is on record as “failed”.
As to “MEVGMIPRVYLGHEWFGAERILSEYQVPEDCGAQVLFLGIPRNAPEDGGNIEALEYEAYPEMAIKEMEKIRQETIEKFGVKEVFIHHRLGLVKIGEPSFLVLAVGGHREETFKACRYAVDETKKRVPIWKKEIFKEGKGEWVLGEKKNASGQTK”, the protein production result is “not failed”.
As for “MEVHYMTKIKEIKKVLQQEDADAAWITTPLNIFYFTGYRSEPHERLFALLIPSNEEPVLFCPKMEVEEVKQSPFKGKIIGYLDTENPFDKYSKTFSKMLIESEHLTVKRQRELTKAFNIEHYQDVDQSIKDLRNIK”, the protein production entry is recorded as “failed”.
“MEVIESKWYKKDGASSASIDDVEKLLNTTLPKQYKSFLLWSNGGEGKLGDNYIYIWAIEDVIAYNHDYGIQKYLQKEYWAFGMDGDIGYILHLSDNSIYRVDLGDLDITSIKYIAPSFDDFLGKAIYLNFNKLQNVANNNLTT”: the protein production result was “not failed”.
As for “MEVKEVELELSSEATFLSKTSIGEITAGEKGLNPMELLLVSIGSCSGVDVYHILKKKRQEVKDIKIFLKGKRREKHPKIYEEIEIKYVAVGKVEEKALEQAVKLSTEKYCSVLAMVKPSTNLKISWEVKWEE”, the entry is “not failed”; as for “MEVKGFIEIMRPHNCILAGIVGILGALVAYEGIPDIKTLTLIFWVVYFGCSGGNTANDYFDYEIDKINRPNRPLPRGAMSRRAALYYALLQYAIGSILAYFLNIRAFVFATIAYFLTFLYGWKLKPLPLVGNITVAALTAATPIYGAIGVGRIGLAGYLAICAFLVNVSREIMKDIEDIEGDKALGARTLPIIIGEKKAAIIAAIFGFLTVIASFLPVKVGIGLGYAPIIIVDIIIIKASIDVLRDPKAASKGQKLLKIATFVAVISFLAGALTKGV”, “failed”; as for “MEVKKELNAQSGKKSLMTIENRKRLLLTGVSEVVNFNDEQIVLNTNLGSLIIKGRELKMNKLDVQNGDIAITGTINAVYSGNESSNKKDSIISRLFKLEHHHHHH”, “failed”.
Regarding “MEVKKVLVSAFLLTTCLMSGQAQRRNEIQVPDLDGYTTLKCDFHMHSVFSDGLVWPTVRVDEAYRDGLDAISLTEHIEYRPHKQDVVSDHNRSFDLCREQAEKLGILLIKGSEITRAMAPGHFNAIFLSDSNPLEQKDYKDAFREAKKQGAFMFWNHPGWDSQQPDTTKWWPEHTALYQEGCMHGIEVANGHLYMPEAIQWCLDKNLTMIGTSDIHQPIQTDYDFEKGEHRTMTFVFAKERSLQGIREALDNRRTAAYFHELLIGREDLLRPFFEKCVKIEEVSRNEQGVTLSITNVTDLVLKLKKTAHDTLLVYFRDMTLKPHTRYTVRIGFKQGIKGGDVNFEVTNFIVAPDKGLKYTISL”, the protein production result was “failed”.
As for “MEVNKPLPLISIIVPIYNIAEYASECIQSLINQTYKNIEIILVDDGSTDHSPAICDEFAEQDERIKVIHKRNGGLSDARNAGLDVATGEYIGFVDGDDWVDEDMYETLYHLIYEHQADISICTHYTELPNRTKVKYKSKKTKIFSSQKAIATLIEDKIIQNYIWEKLFKRELFTELRFPVGWSFEDIALCYKVFHKARKIVLLQTPKYHYRTRPGSITNSTRNPLKEFQYLQALHEQFQFAAENNIKVRKPKKLVQKTFHFINHIIILPPSSLKKKYINDAFEIAHTYDYLRNWEIGVAATLRRFFVYNYFNAYASVIITYRKYIPARTVKSTTEFFFVRRVATSLATAMRSILYILEHHHHHH”, the protein production entry is recorded as “failed”.
Take “MEWFDKISEFMEGLPEWLQAHPRYGYLIVAGILLLWLVGIVCGWRWTYSRPGSWEGNFWLGTLGERSYRFWLGLIVAAATGCALLLFSVTG”: the protein production entry is “failed”.
As for “MEWLFWFDARDYEFARQVLQRGTAVLYAVAFLSTLNQFPALLGERGLLPVPAFLDMARRLARPTLFRWRYSDALLKAVCWTGIGVSVLLVMGLPQTGPPWLPMLAFLTLWFLYMSIVNVGQTFYGFGWEILLLEAGFTVAFLGSNQCPPPTTILVLIVWLVFRLEFGAGMIKIRGGREWRDMTAMFYHHETQPMPGPLSRQAHLLPRPLHKVEVVGNHFAQLVVPFFLFAPQPLASIAAGIIIATQLWLVGTGNFAWLNWVAIVLAFAAVSDPVAHAVFPFIPLEWHQSTETPVWWLAVVVLVTVLLLVFSYQPLLNLFSSRQLMNASFNRWRLVNAYGAFGTVTKQRIEIVVEGTLDDAPDAPDERWLEYGFKGKPGDVRRLPRQWAPYHLRLDWLMWFLPLRTVHEDWFYIFLDRLLEADRRTLGLLRVDPFDGERPRWVRARSYLYRFASRAEFRETGERWVRVLLYDAIPPVSLSPRRRRLP”, the entry is “failed”; as for “MEYKLTPSYLLKENMVLACGNILFADDGFSVHVIEKLQELLTEEEKENIALVDAGAGAPQQVLTLIDSEAKTKKIIVVDIIDYGLEPGEIKILTMDDLPKPEHTKVDSHDWPLSTTMYRVFRDAPHEIDFKVVGCQKKYVSEPDVVIELSEEVQNAVDVAVDIVLSELRGKPIN”, “not failed”; as for “MEYKPIRKVVSGNYAAAYAALHARVQVVAAYPITPQTSIIEKIAEFIANGEADIQYIPVESEHSAMAACIGASATGARTFTATSAQGLALMHEMLHWAAGARLPIVMVDVNRAMAPPWSVWDDQTDSLSQRDTGWMQFYAENNQEVYDGVLMAYKVAETVNVPAMVVESAFILSHTYDVVEMIPQELVDEFLPPRKPLYSLANFDEPIAVGALATPNDYYEFRYKLAKAHEEAKKVIKEVGKEFGERFGRDY”, “failed”.
As for “MEYSSIANGLFLISDINSDAAATISNVFDHTSMNTADLENMPTEKPVEYTKSPGHYYIVLPGQPNKYTAKIIINQLNASGETSDIATTTATSAYTTGLFTISAKYLVDDAFVINAGTGQEMTLTRIMDMDGSDYETFPVDVNQGPQTFTIVPQDQLLHATVNYKFADGTEAAPSAKLSGYAGLTTVSAKSPTISGYTPDQKEVAVAFAPTEKTYTVTYKANPTTPTATESSASSSTADEATTFTPFKIYGKRALYTYKNATFKKNQRVSHYAQKSKAYAPIFEVVGTAKSTSGHLRYKLADGTYVTANADYVGALYWQGMYQKLYVTNPKGTNAYDGTRFAQATKQKHYRQGTALTVVKQTQVGQTTRYELTNGTYVTGNKQWVSPTKPRLVKQVKVKRTIRLYRDVNGSTFIKRIKPGKTLTVTGWDYSHGRNPRLSGTLRYRVAGGYITANRQFVVAN”, the entry is “failed”.
As for “MEYVAFSVAVIILLGLLFNRVFTRARLPGILGMLILGILIGPHGLNLISKSIMDISPDLRVIALIIILLRAGFGINLESLRKVGMTAVKMSFIPDVFEGLAVMVASHYILGLPIIEAGILGFVIAAVSPAVIVPQMLSFIERRMGTAKGIPTIILTGASVDDVVSITLFSVFLGIYQGQQVNLLVEAIGVPLSILTGITGGLALGLALVYLFRRFEIRNTEKTLIILGAAILLKNMGDLISTYLPIAALVGVMVVGLVILERMPETGLKLSEKFNKVWIFAEILLFVLVGAQVDVRLIFHVGLLGLAVITAGLMVRSIGVLLSLKGTDLNLKEKVFCISAYIPKATVQAAIGAIPLAAGVAAGETILAMAVLAILFTAPLGSLAVKWTGERFLEVERGN”, the entry is “failed”.
For “MFADRLFNAMERNEPAPGMVLVAAPSMESEDFARSVILIIEHSEYATFGVNLASRSDVAVFNVIPEWVPCVTKPQALYIGGPLNQQSVVGVGVTAQGVDAARVDNLTRLANRLVMVNLGADPEEIKPLVSGMRLFAGHAEWAPGQLAQEIENGDWFVAPALPSDVTAPGSVDVWGDVMRRQPMPLPLYSTFPVNVGEN”, the protein production result is listed as “not failed”.
Turning to “MFADTCGFMNRSPEHIFGSPEIDYSDVSTGYLEDALIESGERSKRRRLLFEDPSKSFNDDDSQNDWGLHESYSCLNSQFVTPHVNTGERISGVSYCQETISNVYESPDTSVSYDKIYVREKSPTEPSSSNCGNKNKRLITKLVYPFGLVKPGGRENDVTLNDINERILMAPSRPIRHPVGDFASRPCVSGRGPGLSGKAVVALTKIQTQGRGTITIIRTKG”, the protein production entry was “failed”.
Take “MFALIILISAIIFGIISYFTGKHAKEVSAVLSGILLLEIIAYSIMRFSSYSGGFISRYSVVISSSLGLSFSIAVSGLTDALLILSAVVILIAVLITDRNYGSAFFGLEMTVLAGLIGLLISRDFLFFYIFWEVVLIPVYFMIGRYGIGNKNSISLKFFVYTHIGSVFILLSIFTLYSQSYVYLASPTFEIGPLMSILPKLSLFYKGFVIFGFLFGFLVKMPSFPIHSWLPDSYYSAPYPGSVILAGAISMMGGYGLFGIMIESYKALDVYVLYLLIALGIISLIYFALTAMFQRNIKKMMAFASASAMGFVTISFAASILETSGIDYSVRALEAAGGMFQIVAHGLIMSLVFSALYYISRNTKTDSVYGLGGIYREAPKLASLTLVGLLASLGLPGFAGFIGEFSIVVGVFQTVSWYIFLIIFGMIITASYHIWTAQRSLYGPYNENLGFIRDINSGEFMILIFLVLVIFVLGIYPNLIFANLVNYTNTSLSISVEPALRTNVVAFLEAHVFEVMQ”: the protein production result is reported as “failed”.
